For 1 molecule, Kd results are on record in article PMC11997982.

For series [1], the target named is T1, His-RBD WT (Influenza A virus A/Brevig …, UniProt Q99AU3 1-85). The experiment in a line: EMSA (fEMSA); […], pH 8.0, 1 h at room temperature; […]. Particulars: protein: recombinant; tags: N-term 10xHis; chain copies: 2; label: 5'-FAM (FITC) on both strands; blunt. (A gel shift assay detects complexes by their altered migration in electrophoresis.)
The target of series [2] is T2, His-GST-ED WT (Influenza A virus A/Brevig …, UniProt Q99AU3 86-230). The description is as above. Particulars: protein: recombinant; tags: N-term 10xHis-GST; chain copies: 3; label: 5'-FAM (FITC) on both strands; blunt.
Series [3] concerns the target T3, Udorn His-GST-ED WT (Influenza A virus A/Udorn/307/1972, UniProt P03495 86-237). The series is described as above. Particulars: protein: recombinant; tags: N-term 10xHis-GST; label: 5'-FAM (FITC) on both strands; blunt.
Series [4] deals with T4, GST-RBD WT (Influenza A virus A/Brevig …, UniProt Q99AU3 1-85). Described as above. Particulars: protein: recombinant; tags: GST; chain copies: 2; label: 5'-FAM (FITC) on both strands; blunt.
Series [5] has as its target T5, His-GST-RBD WT (Influenza A virus A/Brevig …, UniProt Q99AU3 1-85). The series is described as above. Particulars: protein: recombinant; tags: N-term 10xHis-GST; chain copies: 2; label: 5'-FAM (FITC) on both strands; blunt.
Series [6] deals with T1, His-RBD WT. The experiment in a line: fluorescence polarization; biphasic, second transition; […], pH 8.0, 1 h at room temperature; […]. Particulars: protein: recombinant; tags: N-term 10xHis; chain copies: 2; label: 5'-FAM (FITC) on both strands; blunt. For orientation: In fluorescence polarisation assays a small probe gives low polarisation when free and higher when bound to something large.

Series [7] deals with T1, His-RBD WT. The experiment in a line: fluorescence polarization; biphasic, first transition; […], pH 8.0, 1 h at room temperature; […]. Particulars: protein: recombinant; tags: N-term 10xHis; chain copies: 2; label: 5'-FAM (FITC) on both strands; blunt.
Series [8] concerns the target T2, His-GST-ED WT. The experiment in a line: fluorescence polarization; […], pH 8.0, 1 h at room temperature; […]. Particulars: protein: recombinant; tags: N-term 10xHis-GST; chain copies: 3; label: 5'-FAM (FITC) on both strands; blunt.
Series [9] deals with T3, Udorn His-GST-ED WT. The series is described as above. Particulars: protein: recombinant; tags: N-term 10xHis-GST; label: 5'-FAM (FITC) on both strands; blunt.
Series [10] addresses T4, GST-RBD WT. Described as above. Particulars: protein: recombinant; tags: GST; chain copies: 2; label: 5'-FAM (FITC) on both strands; blunt.
The target of series [11] is T5, His-GST-RBD WT. The series is described as above. Particulars: protein: recombinant; tags: N-term 10xHis-GST; chain copies: 2; label: 5'-FAM (FITC) on both strands; blunt.
The target of series [12] is T3, Udorn His-GST-ED WT. The experiment in a line: fluorescence polarization; protein prep B, A260/280 0.85; […], pH 8.0, 1 h at room temperature; […]. Particulars: protein: recombinant; tags: N-term 10xHis-GST; label: 5'-FAM (FITC) on both strands; blunt.

T3 sequence (P03495 86-237): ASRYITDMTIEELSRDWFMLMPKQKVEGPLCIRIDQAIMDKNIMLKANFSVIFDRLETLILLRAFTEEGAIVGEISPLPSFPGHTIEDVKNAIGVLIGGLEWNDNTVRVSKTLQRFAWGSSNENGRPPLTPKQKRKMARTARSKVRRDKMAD
T1 sequence (Q99AU3 1-85): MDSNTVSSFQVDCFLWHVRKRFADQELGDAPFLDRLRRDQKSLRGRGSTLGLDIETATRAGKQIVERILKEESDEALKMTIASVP
T2 sequence (Q99AU3 86-230): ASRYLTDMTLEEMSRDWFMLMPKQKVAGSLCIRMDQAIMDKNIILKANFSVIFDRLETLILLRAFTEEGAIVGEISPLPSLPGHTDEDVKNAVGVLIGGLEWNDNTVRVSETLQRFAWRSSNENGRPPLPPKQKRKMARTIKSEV
T5 sequence (Q99AU3 1-85): as the sequence (Q99AU3 1-85) above
T4 sequence (Q99AU3 1-85): as above

B1: FAM-dsRNA 16 bp (dsRNA)
RNA 1: CCAUCCUCUACAGGCG
RNA 2: CGCCUGUAGAGGAUGG
B1: the Kd in series [1] worked out at 55 ± 16 nM; in series [2] it was 3500 ± 800 nM; in [3], 170 ± 35 nM; in series [4], 100 ± 32 nM; in [5] it was 180 ± 42 nM; in series [6], 2160 ± 460 nM. For the same molecule, the equilibrium dissociation constant (Kd) in series [7] is 83 ± 11 nM; in series [8] it was 1900 ± 250 nM; in [9], 180 ± 21 nM; in series [10] it was 76 ± 5 nM; in [11], 125 ± 9 nM; in series [12], 196 ± 23 nM.

As usually defined, the Kd is the equilibrium constant for the complex coming apart.
